# Source: the DeepSol protein solubility set
# Assay: soluble on expression in E. coli; label from the status in PepcDB or PDB records
row,Sequence,soluble on expression in E. coli
1,MHIKSIHLDGFKSYQKHTDILDFSPTFNAITGYNGSGKSNILDSICFIMGINKLDNIRAKSMHELISHGGTKAIVQVRFDNTDKRCSPFGMEHLDEIVVQRIITAQATGKGCATSYTLNGHAATNGKMQDFFRGVGLNVNNPHFLIMQGRITTVLNMKPEEILGMVEEAAGTKMYDQKKKDAEKTMFLKDAKLKEVDRIFQSSIDPRMVKFREDRKNMVEVTRLKKLKENFSRKYEAFQYFQTCEAVKKSAKEIEDAKKGIEDLGEKFNQLDLDLKNKEDEKKKMEESRDDQHEEAALSAAHLSKQSIMLQKETVKNQLVETINKLKKEGEQINKSLSKDREVLDAKRKEHEDSKAANSKDIQSQSDDEALVTKYRNDLESLTRGTIANDKGEHVSIESEIQSCKSTASQMSSGITAAKKRGERLHNQIKHLEGEKATLSARSKSDIGSADNYQKEVDEINKQLQLLGFNIDADTEKREHAAKLHESITKLKDMDTRLLNSYKDGRYALNYQRPPLHIDKFDEKRDVFGYVAHLIKMKPGCEQFAVAADIALGGVLGNVVVSTQDIARILIDGKAFTSRKTMIPVSENARNASSYNTLPDVKLRRAKEIAEKYNDTVTKMIDLIEYPDFISNTILNAVGQILVVDSLDVAREIAYDEVAKTRMITRRGDDVRTNGIMTGGYNDPGNKPALIALEPMYARRPQIEAQQRELDALNRELQLTEASSQKCRDLNNQLATAMRKLAQVKTNINNSEFGIVVRDLKVHSEEYEKNQAEIEATVKTLKDVEDKIKTLESMKNKDKNSQEKRKKELTALLQKAEQTVAQNKNRGEKARREVMLLQATVEEMEKTIKKDEGIWEQKKKECDELEEKLPNAIAALKDAELEQKAAQAKLNDLKNNQRQISTRLGKIAKECDALIREKAKTKSKREEKEKELTSLQQSEASNRKEARSKLKKFEWLSDEEAHFNKKGGLYDFEGYTVSKGKDEIKELTDKIETLERSCCIQNVSNLDTCEAKVLDIKNKRERITEDFNMLKKTIATLDKKKVDELIRAHESVNKDFGQIFNCLLPDAHASLVPPEGKTVCEGLEVKVSFGGVVKDSLHELSGGQRSLVALSLILAMLKFKPAPLYILDEVDAALDLSHTANIGMMIKTHFHHNQFIIVSLKQGMFSNADVLFQTRFADGHSTCTRLNGGDIAVLCQDKVLQAQALELTDAGKAKKDAAAKKGAQKNDKEPPKKKPIVVDDDDFE,not soluble
2,MHKPLRIATVTATCAVAGAVLYTTGAASAGQSTANSTHEPYNIGVLAKDIDAYYGTTLDADGVYQASPDSPYAADLARVDAAAKKQIDRAARTAHHKHTRPAVVFDIDDTLLLSLDYEKKNNYGYDGATWAAYVDRADRPAVPGSPELARYADKKGVEVFYNSGLGEAQRAAAVENLKKAGADVNLDASHMFLKDKANPPSYLAHCATPGSWTCTTVQYKAGTRRHIERDLGYDVVANFGDQYSDLQGGYADRTYKLPNPTYFVE,soluble
3,MHKVLVPFDGSEHAMRALGYVIELSGDLNKPLEVHVLNVQASPIDYSLYLAPDMIDGVKAGLKNEGKRVLDDAIALLAAAGVPFQAHVDLGNVAEQVEAEVQRLGCDAVVMGTRGLGNFGGLLLGSVATRVIHEVSVPVTLIK,not soluble
4,MHLDVLDLHNFYYRTPLGRVAQRAVRDQVQKLWPDAQGQTVAGFGFSVPLLRPYLEQARRLIALMPGPQGVMPWPVGMGNVSVLCEEGAWPLSTGMVDKLVMLHGLETSEHPSEVLSEAWRVLGPGGRALFIVPSRSGLWARRDGTPFGFGRPYSLNQLEAQLKRHDFTPERALAALFAPPLHQRFWLKTADFWETGGRRFAPWLVGGVLIVEASKQVYAPTRTGLKAAVSKPLRVLEGIPQPLPAPAGRTSDGSCGCPGGC,not soluble
5,MHMEDFIQFFSGSNLSIDKANFDQFGLKAKIKHYQKGQLLITQGQPAPKLFFLIKGMVRYMSVSATGKEFTQSFAFAPGISGSTRAMTRNANALFSIEALDDVICLEFEWHVFFDQMQSQPGFLAAYNRLLENMFIKKEEREFAFVQQSAEQRYLTFLDMNPQLRDKISLKMIASHIGITPIALSRIRNKLK,not soluble
6,MHMELRMVGRLSWITLFTLFLVGCSSAPDDSSPHSQVNDPLESFNRQMWTINYDYLDPYVVRPVSLFYVGYVPKPVRSGIANFLSNLDEPASMVNNLLMGNGTKAVDHFNRFWINTSFGLLGLIDIASEAGIKKYDDKAFSDAVGHYGVGNGPYLMVPGYGPYTVREVTDVVDGMYFPLAYLNIWAGVGKWALEGMETRAALVSQEALLQDSPDPYSLARDAYLQRQAFKAEIQVDDYDPEEEEYLDEYLNEGL,not soluble
7,MHQQLMVMIDRKRRRSFIMMRSMFSGVSGLQAHQTKMDVIGNNVANVNTVGFKSSRVTFQEVFSQTLKGASSPDPTTGRGGTNPMQVGLGLGVATIDTLMTRGSVQRTDNPTDLAIEGDGFFIVKGGSSDTFKFTRAGNFGIDRLGNLVTGSGLNVYGWQSYTKLPDGTYKFDTESQIEPINLYSDDVNKNKRMIAAKATTYAIFEGNLDASYSIYSSAASGTSSNNRFTMPVTVYDSLGNSYKINISFWKTDVTGGVTTWTWQVDSGNGVTASGATGTILFDDQGQVIESSAVTPSITIIPDSSVGSQNINVKLDFSRLTMYAADSSAKATNVDGYPAGSLVTFSIGSDGMIMGIYSNGQQQPLGLIALASFDNPAGLEKVGENMYIPTSNSGEFKKGVKAGTEGVGTLSPGTLEMSNVDLSKEFTEMIITQRGFQANSRIITTSDEMLQELVNLKR,not soluble
8,MHRDSTDIEVKRASELPENLPETTCAFANMPSGGTIILGVDENRDFEVVGVADAAALEEALISQTRNSVKPAPMIECETFTLEGKQVLVAQVNPVPLQNRPAHYRGVAYLRQSDGDYGMNDADLALVEIQKLSHSENFQFDVVPVLNSSTRDLDSVRVKSFLEAARAGSRILSKKIDDQELLETLNIVTVKGAAALEHHHHHH,not soluble
9,MHRGITVQTSDLDDGVTGVVGKVYIEASPKHVWAAITDYNNHKSFVPKLIDSGLISDNGREQVMFERGKTGIFLFRKTVYIKLSLQGEYPKRLDFHQIEGDFKVYEGDWLIERASDGKGSILTFRAKIKPDFFAPAMFVRKVQQNDLPLEHHHHHH,soluble
10,MHSITTALENLTRQLSQEIPATPGLCVFDAPFPLNDAFDALSWLASQSSFPQFYWQQRNGDEEAAVLGAITVFSSLDLAQRFLRQHAQPDLRIWGLNAFEPKEGYLLLPRLEWRRSGGTATLRLHLHSDVSLRDDARQAKAFLASLVGIKPVPALRLSLTSEQHWPDKDGWVKLIQQATHTIAQEAFDKVVLARATDLQFSRPVNAAAMMASSRRLNLNCYHFFMAFSADTAFLGSSPERLWRRRETALRTEALAGTVANHPDNHKAWQLGEWLMKDDKNQRENMLVVEDICQRLQNCTHSLDVLPPQVLRLRKVQHLRRCIWTALNQADDTLCLHQLQPTAAVAGIPREPARCFIEQHEPFEREWYAGSAGYLSTRQSEFCVTLRSAKVTANVVRLYAGAGIVRGSDPEQEWQEIDNKAAGLRTLLQMDA,not soluble
11,MHSIYKFSTCNVHRESPLRVRVEDLTVAYNGEPVLSGVNLEFRGPGLVQIIGPNGAGKTTFLKAILGLIKPARGRVFLDGFEATGRPEMVGRYAGYVPQNPSAPKLSPMTVREFVETSLRLRGVTRARERAVEVLHTLGIRGEVLESRLWELSMGMLQRVFIARAIAPDPKMLVMDEPLASVDPAGRMEIARIIAGLARERLVLMTSHDPSLLLGHTDIIVVINRDLIASGPPEEVYREDVLRRVYGESVARGLVLAGEGGAHG,soluble
12,MHSLGWDIWNAVQPKEFYKGFLRRSIRPDGRKLSEYRDITLRKGPLVTTVDGSANASIGRTVALIGIQPKVIEWKETKKGSARSIVGQHCSLQVEFPSVCHRDIRSGRTLEEALLVKESLENVLEQILERDSFCIVPDKFYWHLQITAYCLSLDGNVIETFLLALYGALLDLQLPVVRASTSGDLLTLDPNQPKVTLPMKKLEDWPWVVPIGLFWNGPSEYYAVLDLSEEEENNMSSIVWIWNSQRGDKLAISKQKVGPLSVNILQEVLQLVKAHIDEVILRLQHGK,not soluble
